Key:
GALR2 = target: T1, GALR2 (Homo sapiens, UniProt O43603); assay: Radioligand binding, [125I]galanin displacement on CHO GalR2 membranes; design: expressed in transfected cells; host or cells: CHO (Flp-In, pcDNA5/FRT); settings: recombinant GalR2 membranes, FIG. 3
T1 sequence (O43603 1-387): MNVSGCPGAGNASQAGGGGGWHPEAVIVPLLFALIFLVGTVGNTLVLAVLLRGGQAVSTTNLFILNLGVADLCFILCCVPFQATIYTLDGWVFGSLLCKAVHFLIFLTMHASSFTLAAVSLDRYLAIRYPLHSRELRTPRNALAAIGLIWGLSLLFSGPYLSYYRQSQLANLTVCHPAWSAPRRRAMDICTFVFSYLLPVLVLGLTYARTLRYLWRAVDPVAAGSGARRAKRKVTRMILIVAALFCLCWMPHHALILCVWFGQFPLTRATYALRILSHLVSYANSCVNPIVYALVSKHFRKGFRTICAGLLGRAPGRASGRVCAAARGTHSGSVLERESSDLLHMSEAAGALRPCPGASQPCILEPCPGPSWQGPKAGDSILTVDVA
Experimental: Cell membrane homogenates (4 μg protein—from CHO cells expressing the GalR2 receptor) were incubated for 120 minutes at 22° C. with 0.05 nM [^125I] galanin in the absence or presence of test compound in a buffer containing 25 mM Tris-HCl (pH 7.4, 10 mM MgCl2 and 0.5% BSA. Non-specific binding was determined in the presence of 1 μM porcine galanin. Following incubation, samples were filtered rapidly under vacuum through glass fiber filters (GF/B, Packard) pre-soaked with 0.3% PEI and rinsed several times with ice cold 50 mM Tris-HCl using a 96 sample cell harvester (Unifilter, Packard). The filters are dried then counted for radioactivity in a scintillation counter (Topcount, Packard) using a scintillation cocktail (Microscint 0), Packard). The results are expressed as a percent inhibition of the control radioligand specific binding. The standard reference compound is porcine galanin which is tested in each experiment at several concentrations to obtain a competition curve from which its IC50 is generated.
Briefly, cell overexpressing recombinant GalR2 were used to for crude membrane preparations. Competition style binding assays were then used to monitor displacement of [125I]-Galanin using a range of concentrations of Gal-FC fusion. After a period of incubation data were expressed relative the maximum specific Galanin bound.

rat GalR2 = target: T2, rat GalR2 (Rattus norvegicus, UniProt O08726); assay: Calcium assay at orthologue receptor; format: cell-based; settings: Table 8; Calcium assays; mean +/− standard deviation
T2 sequence (O08726 1-372): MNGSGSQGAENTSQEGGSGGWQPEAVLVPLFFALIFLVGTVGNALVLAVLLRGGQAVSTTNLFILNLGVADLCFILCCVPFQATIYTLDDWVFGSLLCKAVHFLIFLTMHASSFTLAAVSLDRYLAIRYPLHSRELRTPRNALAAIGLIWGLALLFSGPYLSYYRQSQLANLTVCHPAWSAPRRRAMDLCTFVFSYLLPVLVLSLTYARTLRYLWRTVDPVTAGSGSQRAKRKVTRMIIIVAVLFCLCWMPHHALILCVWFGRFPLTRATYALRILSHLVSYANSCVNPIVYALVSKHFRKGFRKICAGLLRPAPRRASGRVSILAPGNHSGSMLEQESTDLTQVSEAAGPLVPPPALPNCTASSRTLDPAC
Description: These species were chosen as they represent potential downstream in vivo models to be used. […] Calcium imaging was used to define receptor activity.

[1] = tested on: mouse chemotherapy-induced model of neuropathic pain; assay: Oxaliplatin chemotherapy-induced neuropathic pain model, von Frey; format: in vivo; settings: 0.1, 1 and 3 mg/kg i.p.; 4 hours post dose (day 5 after Oxaliplatin)
Experimental: Oxaliplatin-induced hypersensitivity: A single dose of Oxaliplatin was injected intraperitoneally (i.p.) at 10 mg/kg at a volume of 10 ml/kg. Oxaliplatin was dissolved in 5% dextrose to 1 mg/ml before use. Animals were injected in the same order in which they were tested.
Static mechanical tactile allodynia: Static mechanical (tactile) allodynia was assessed by measurement of withdrawal threshold using calibrated (force; g) von-Frey monofilaments (Touch-Test Sensory Evaluator; Scientific Marketing Associates) applied to the plantar surface of the hind paw. Animals were placed in individual Perspex boxes on a raised metal mesh for 30-40 min before the test. A series of graduated von Frey hairs (0.07, 0.16, 0.4, 0.6 and 1 g) was applied in sequence with a protocol of 1 sec on 1 sec off repeated 10 times. […] The force applied to the hind-paw of the animal to induce 5 responses out of 10 trials was recorded as paw withdrawal threshold (PWT).
Baseline PWT was assessed on three consecutive days (Day-3, Day-2 and Day-1). […]
Mechanical allodynia was re-assessed on Day 3 and 4 post-administration of a single dose of Oxaliplatin to monitor the development of allodynia. […]
Mechanical allodynia was re-assessed on Day 5 (4 hours post dose) and thereafter determined on Days 6 and 7 after administration of Oxaliplatin (i.e. 24 hours and 48 hours post FC2-13 treatment). […]

Question: How did the “pIC50, displacement of [125I]-Galanin binding” value (GALR2) turn out when “Gal2-30FC: galanin 2-30, AEAAAKEAAAKA linker, human IgG1 FC; SEQ ID NO: 28” was run?
Answer: 7.55

Question: Which results are given for “Gal2-13FC: galanin 2-13, AEAAAKEAAAKA linker, human IgG1 FC; SEQ ID NO: 7”?
Answer: Rat GalR2 activity (rat GalR2): 6.5 +/− 0.1; reversal of Oxaliplatin-induced mechanical hyperalgesia [1]: efficacious
